# Test results taken from the supplement of paper PMC10567573.
# B1: KRT71 (parent)
# chain: FGSRSLYSLGGVRSLNVASGSGKS
# Variants of: B1
# Assay: protein stability index of a GFP-peptide fusion (GPS, HEK-293T) (PSI 1-6); higher = more stable
# Conditions: c terminus: a fixed tail appended
# 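Also: lentivirally expressed fusions sorted by FACS into six bins by GFP to DsRed ratio, PSI derived from sequencing read proportions per bin multiplied by bin number.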
row,Variant,protein stability index
1,S8I,1.54
2,S8R,1.69
3,S8P,1.72
4,S8Q,1.72
5,S8D,3.44
6,S8H,2.89
7,S8W,2.62
8,S8C,2.1
9,S8V,2.23
10,S8K,2.14
11,S8E,2.75
12,S8L,2.2
13,S8A,2.17
14,S8T,1.89
15,S8N,2.4
16,S8G,2
17,S8Y,1.2
18,S8F,1.21
19,S8M,1.38
20,G11D,2.25
21,G11L,2.9
22,G11W,2.62
23,G11R,2.46
24,G11V,4.85

row,Variant,protein stability index
1,G11S,2.11
2,G11C,2.87
3,G11N,2.24
4,G11I,5.35
5,G11Y,3.77
6,G11K,1.64
7,G11E,2.92
8,G11P,1.8
9,G11M,2.71
10,G11Q,3.2
11,G11T,2.4
12,G11H,2.33
13,L6G,1.77
14,L6I,2.29
15,L6H,2.33
16,L6E,3.14
17,L6S,2.13
18,L6Y,1.48
19,L6W,2.94
20,L6F,3.13
21,L6M,1.93
22,L6N,2.76
23,L6T,3.13
24,L6P,1.74

row,Variant,protein stability index
1,L6R,2.65
2,L6Q,2.62
3,L6V,1.62
4,L6K,2.91
5,L15A,2.35
6,S14C,1.58
7,S14Y,2.36
8,S14H,2
9,S14G,2.04
10,S14E,2.66
11,S14T,1.74
12,S14Q,1.86
13,S14W,1.44
14,S14R,1.5
15,S14M,1.65
16,S14N,2.38
17,S14A,1.59
18,S14I,1.38
19,S14K,1.81
20,S14F,1.89
21,S14D,1.92
22,S14P,1.71
23,S14L,2.04
24,S14V,1.03

row,Variant,protein stability index
1,R13N,1.87
2,R13M,1.26
3,R13S,2.48
4,R13D,2.06
5,R13K,1.34
6,R13F,1.72
7,R13T,1.28
8,R13H,1.81
9,R13V,1.74
10,R13P,1.81
11,R13L,2.27
12,R13Y,1.7
13,R13W,1.67
14,R13G,1.45
15,R13C,2.29
16,R13I,1.93
17,R13E,1.86
18,R13A,3.09
19,R13Q,1.43
20,L9P,2.6
21,L9K,2.27
22,L9D,2.56
23,L9I,1.75
24,L9M,1.83

row,Variant,protein stability index
1,L9S,2.18
2,L9W,1.87
3,L9C,2.12
4,L9F,1.88
5,L9N,2.51
6,L9V,2.62
7,L9G,2.66
8,L9A,2.5
9,L9E,2.59
10,L9Q,2.79
11,L9R,2.56
12,L9T,2.64
13,L9Y,1.77
14,L9H,2.75
15,Y7T,2.55
16,Y7F,3.01
17,Y7V,2.83
18,Y7I,2.32
19,Y7P,3.75
20,Y7W,2.05
21,Y7L,1.6
22,Y7N,3.26
23,Y7D,3.53
24,Y7S,3.89

row,Variant,protein stability index
1,Y7H,2.98
2,Y7C,2.48
3,Y7R,3.57
4,Y7G,2.81
5,Y7E,4.17
6,Y7A,3.46
7,Y7Q,3.91
8,Y7K,3.02
9,Y7M,2.54
10,V12W,1.71
11,V12L,2.21
12,V12N,2.28
13,V12S,2.45
14,V12R,2.37
15,V12I,2.12
16,V12P,2.2
17,V12Y,1.65
18,V12K,2
19,V12T,2.27
20,V12F,1.66
21,V12C,1.55
22,V12D,2.05
23,V12A,1.81
24,V12H,1.68

row,Variant,protein stability index
1,V12Q,2.11
2,V12M,1.68
3,V12G,2.13
4,V12E,2.3
5,G10W,2.79
6,G10M,2.09
7,G10S,1.83
8,G10L,2.6
9,G10D,2.51
10,G10V,1.58
11,G10Y,1.94
12,G10F,1.5
13,G10N,2.16
14,G10E,2.31
15,G10A,1.66
16,G10T,2.05
17,G10H,2.56
18,G10K,1.9
19,G10I,3.84
20,G10Q,2.08
21,G10R,1.6
22,G10C,3.19
23,G10P,2.03
